Reference: PMC8528823

Target: Mouse Fc (mFc) tagged mink ACE2 (mink (Neovison vison))
Experiment: SPR

SARS-CoV-2 WT RBD (from UniProt P0DTC2 319-541) (domain or fragment)
Kd: 8.16 µM
